# Data published in US6235873.
# Test system: Stat3-C (A662C/N664C Stat3) (Mus musculus)
# Experiment: cell_activity
# Settings: approximately 10-fold, no induced tyrosine phosphorylation
substance,measurement,value
4x m67 luciferase reporter,activity (fold over background),10
